# Test results as given in the nanobody polyreactivity screen of Harvey et al. (2022).
# Assay: yeast display, Sf9 membrane polyspecificity reagent, FACS + sequencing; frameworks hold sequencing errors
# Method in brief: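 A synthetic nanobody library was expressed on Saccharomyces cerevisiae BJ5465 by galactose induction for 36–48 hours. The library was stained for 1 hour at 4 °C with 10% biotinylated, detergent-solubilized Sf9 membrane reagent and enriched with streptavidin microbeads before FACS. Low and high (top ~1%) gates were set on anti-HA fluorescence for expression and streptavidin fluorescence for reagent binding, and each polyreactivity label reflects the gate of origin.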
row,Sequence,polyreactivity (PSR sort gate)
1,QVQLVESGGGFVQAGGSLRLSCAASGRTFLAMGWYRQAPGKERELVAAISRTNYADSVKGRFTISRDNAKNTVYLQMNSLKPEDTAVYYCNARRSYFLRYGVNYWGQGTQVTVSS,low polyreactivity
2,QVQLVESGGGLVQAGGSLRLSCAASGSIFSYYAMGWYRPAPGKERELVAAISKRGPSTYYADSVKGRFTISRDNAKNSVYLLMNSLKPEDTAVYYCAAKYSRRSSVSYYYWGQGTQVTVSS,high polyreactivity
3,QVQLVESAGGLVQAGGSLRLSCAASGIILYYYAMGWYRHAPGKERELVAAISSGGNTYYADSVKGRFTISRDNAKNTVYLQMNSLKPEDTAVYYCAAVTVIGGEYDYWGQGTQVTVSS,low polyreactivity
4,QVQLVESGGGLVQAGGSLRLSCAASGLIFRTYTMGWYRQAPGKERELVATITRRGGTTYYADSVKGRFTISRDNAKNTVYLQMNSLKPEDTAVYYCAKSPYYTWKYDYWGQGTQVTVSS,high polyreactivity
5,QVQLVESGGGLVQAGGSLRLSCAASGRTIWWYAMGWYRQAPGKERELVADITWIGGSTYYADSVKGRFTISRDNAKNTVYLQMNSLKPEDTAVYYCATDKDDVSDLGKDYAYFEYDYWGQGTQVTVSS,low polyreactivity
6,QVQLVESGGGLVQAGGSLRLSCADSGNTFKGYAMGWYRQAPGKERELVAAISWSGSSTYYADSVKGRFTISRDNAKNTVYLQMNSLKPEDTAVYYCAVTYRRFYYWGQGTQVTVSS,high polyreactivity
7,QVQLVESGGGLVQAGGSLRLSCAASGRTFPRNGMGWYRQAPGKERELGAGISSAGSTNYADSVKGRFTISRDNAKNTFYLHMNSLKPEDTAVYYCNAVLRRRWVTFYYWGQGTQVTVSS,high polyreactivity
8,QVQIVESGGGLVQAGGSLRLTCAASGSIFTVYAMGWYRQEPGKERELVAAISSGASTNYADTVKGRFTISRDNATNTVYLQMNSLKPEDTAVYYFAARLYARRLYDYWGQGSQVTVSS,low polyreactivity
9,QVQLVESGGGLVQAGCSLRLSCAASGLIFAVYTMGWYRQAPGKERELVAAITRRSTRTYYADSVKGRFTNSRDNAKNTVYLQMNSLKPEDTAVYYCAADRGSSGAAFEYWGQGTQVTVSS,low polyreactivity
10,QVQLVESGGGLVQAGGSLRLSCAASGRIFYSNAMGWYRPAPGKERELVAGITISGGSTYYADSVKGRFTISRDYAKNTVSLQMNSLKPEDTAVYYCNARYLRRGDYGGQGTQVTVSS,low polyreactivity
11,QVQLVESGGGLVQAGGSLRLSCAASGIIFGDNAMGWYRQAPGKERELVAAIDSGGSTYYADSVKGRFTISRDNAKTTVYCPMNSLKPEDTAVYYCNAVTAFGYSYGGWDYDQYNYWGQGTQVTVSS,low polyreactivity
12,QVQLVESGGRLVQAGGSLRLSCAASGFTFYGYAMGWYRQAPGKERELVAAISRGGGRTYYADSVKGRFTISRDNAKNTVYLQMNSLKPEDTAVYYCAAQGGSKTSSRSYGYWGQGTQVTVSS,high polyreactivity
13,QVQLVESGGGLVQAGGSLRLSCAASGITFDGYAMGWYRQAPGKERELVAAISISGASTYYADSVKGRFTISRDNAKNTVYLQKNSLKPEDTAVYYCAASSWINQYPGDYWGQGTQVTVSS,high polyreactivity
14,QVQLVESGGGLVQAGGSHRLSCAASGLTFYQYSMGWYRQAPGKERELVAAISKSAGSTYYADSVKGRFTISRDNAKNTVYLQMNSLKPEDTAVYYCAARVLRLRYDYWGQGTQVTVSS,high polyreactivity
15,QVQLVESGGGLVQAGGSLRLSCAASGSIFAYYAMGWYRQAPGKEREFVARITYSTDGTYYADSVKGRFTISRDNAKNTVYLQMNSLKPEDTAVYYCAVDTWWGFKRYKFDYWGQGTQVTVSS,low polyreactivity
16,QVQHVDSGGGLVQAGGSLRLSCAASGSTFSLNAMGWYRQAPGKERELVAAISSGDSTNYADSVKGRFTISRDNAKNTVYLQMNSVKPEDTAVYYCAVEVYYTGFYYSPYAYDYWGQGTQVTVSS,low polyreactivity
17,QVKLVESGGALVQAGCSLRLSCAASARTFPVYAMGWYRQAPGKERELVAAIRYSAGSTYYADSVKGRFTISRDNAKITVYLQMNSLKPEDSSVSYCARTTPTGRQYRRYDYWGQGTQLTVSS,low polyreactivity
18,QVQLVESGGGLVQAGGSLRLSCAASGRTFYQYAMGWYRQAPGKERELVAAISRRGGTTYYADSVKGRFTISRDNAKNTVYLQMNSLKPEDTAVYYCAASSLPAGEMYYWGQGTQVTVSS,high polyreactivity
19,QVQLVESGGGLVQAGGSLRLSCAASGSTFLNYAMGWYRQAPGKERELVAAISGRGGRTYYADSVKGRFTISRDNAKNTVYLQMNSLKPEDTAVYYCARRVRFPGGTFYYWGQGTQVTVSS,high polyreactivity
20,QVQLVESGGGLVQAGGSLRLSCAASGRTFVIYAMGWYRQAPGKEREFVAAISRSGGSTYYADSVKGRFTISRDNAKNTVYLQMNSLKPEDTAVYYCNTRTPYWVKSDYWGQGTQVTVSS,low polyreactivity
21,QVQLVESGGGLVQAGGSLRLSCAASGFTFSYYDMGWYRQAPGKERELVAAITQSGGSTYYADSVKGRFTISRDNAKNTVYLQMNSLKPEDTEVFYCAALTYRWSARDYWGQGTQVTVSS,high polyreactivity
22,QVQLVESGGGLVQAGGSLRISCAASGFIFRLYAMGWYRQAPGKERELVAAIRWSGGSTTYADSVKGRFTISRDNAKNTVYLQMNSLNPEDTAVYYCAATAGRRSVTYGYWGQGTQVTVSS,high polyreactivity

row,Sequence,polyreactivity (PSR sort gate)
1,QVHLVESGGGLVQAGGSLRLSCAASGSIFTVYTMGWYRQAHGKERELVAAINSRGGTTYYADSVKGRFTISRDYAKNTVYLQMNSLKPEDTAVYYCAAKQRPKSYGPVHYYWGQGTQVTVSS,high polyreactivity
2,QDQRVESGGGLVQAGGSLRLSCAASGSIRGYAMGWYRQAPGKERELVASITWSGGSTYYADSVKGRFTISRDNSKNTVYLQMNSLKPEDPAVFYCAARPSPYASFFRPYDYWGQGTQVTVSS,low polyreactivity
3,QVQLVESGGGLVQAGGSLRLSCAASGSTFSDYAMGWYRQAPGKERELVAAISYSGGSTYYADSVKGRFTISRDNAKNTVYLQMNSLKPEDTAVYYCAAEYERYFGYDYWGQGTQVTVSS,low polyreactivity
4,QVQLVESGGGLVQAGGSLRLSCAASGYIFQPYAMGWYRQAPGKERELVAAISWRGGTTYYADSVKGRFTISRDNAKITVYLQMNSLKPEDTAVYDCAKDYYYGLDHYGYWGQGTQVTVSS,low polyreactivity
5,QVQLVETGGGLVQAGGSLRLSCAASGSTFYYNAMGWYRQAPGKERELVARITRSGGSTYADSVKGRFTISRDNAKNSVYLQMNSLKPEVTAVYYWNADAYGTPEFTSYALRYDYWGQGTQVTVSS,low polyreactivity
6,QVQLVESGGGLVQAGGSLRLSCAASGGTFSTYAMGWYRQAPGKEREFVAAITRSGTSTYYADSVKGRFTISRDNAKNTVYLQMNSLKPEDTAVYYCATGEHFYRKLDYWGQGTQVTVSS,low polyreactivity
7,QVQLVESGGGLVQAGGSLRLSCAASGRTFQFYVMGWYRQAPGKERELVASIRSGGSTNYADSVKGRFTISRDNAKNTVYLQMNSLKPEDTAVYYCAARVASPYYRYDYWGQGTQVTVSS,low polyreactivity
8,QVQLVESGGGLVQAGGSLRLSCAASGSIFPPNAMGWYRQAPGKERELVAGISQSGGSTYYADSVKGRFTISRDNAKNTVYLQMNSLKPEDTAVYYCARRSRVGYPLDSWGQGTQVTVSS,high polyreactivity
9,QVQLVESGGGLVQAGGSLRLSCAASGSTFQRYAMGWYRQAPGKERELVAAITWSGGSTKYADSVKGRFTISRDNAKNTVYLQMNSLKPEDTAVYYCAATPGRGGGYNYWGQGTQVTVSS,low polyreactivity
10,QVQLVESGGGLVQAGGSLRLSCAASGRIFHQYAMGWYRQAPGKERELVAAITGGGSTYYADSVKGRFTISRDNAKNTVSLQMNSLKPEDTAVYYCAAPPFGYYEVGYDSWGQGTQVTVSS,low polyreactivity
11,QVQLVESGGGLVQAGGSLRLSSAASGFTFWSKAMGWYRQAPGKERELVAAISRGGSTYYADSVKGRFTITRDNAKNTVYLQMNSLKPEDTAVYYCAAVRLSRVYYWGQGTQVTVSS,high polyreactivity
12,QDQLVESGGGLVQAGGSLRLSCAASGPIFYSNAMGWYRQAPGKERELVAAISSGDGITYYADSVKGRFTISRDNAKNTVYLQMNSLKPEDTAVYYCAADGYYDYPYSGDYWGQGTQVTVSS,high polyreactivity
13,QVQLVESGGGLVQAGGSLRFSCAASGSIFDYNAMGWYRQAPGKERELVAAIDWSGSSTYYADSVKGRFTISRDNAKNTVYLQMNSLKPEDTAVYYCNALAYYGMDYWGQGTQVTVSS,low polyreactivity
14,QVQLVESGGGLVQAGGSLRLSCAASGSILGLNAMGWYRQAPGKERELVASISRRGGSTRYADSVKGRFTISRDNAKNTVYLQMNSLKPEDTAVYYCNAYHWDGDGVFYEYDYWGQGTQVTVSS,high polyreactivity
15,QVQLVESGGGLYQARGSLRLSCAASGSIFLDNAKGWYRQAPGKERELVAAISSGGNTNYADSVKGRFTISRDNAKNTVYLQINSLKPEDTAVYYCAADPTKWHYYLPRYYYWGQGTQVTLSS,low polyreactivity
16,QVQLVESGGGLVQAGGSLRLSCAASGSILHLYAMGWYRQAPGKERELVARINSGGTTNYADSVKGRFTISRDNAKNTVYLQMNSLKPEDTAVYYCAARFTPFITSDDGHYDYWGQGTQVTVSS,low polyreactivity
17,HVQLVESGGGLFQAGGSLRLICAASGSTFGFYAMGWYRQAPGKERELVAAISRRTGSTYYADSVKGRFTISRDNAKNTVYLQMNSLKPEDTAVYYCNTDQSQKTVGYDYWGQGTQVTVSS,high polyreactivity
18,QVQLVESGGGLVQAGGSLRLSCAASGSIFAANAMGWYRQAHGKERELVAAISWSGGYTYADSVKGRFTISRDNAKNTVYLQMKSLKPEDTAFYYCAADLWSQYKFGYWGQGTLVTVSS,low polyreactivity
19,QVQLLESGGGLVQAGGSLRLSCAASGFTFYRYAMGWYRQAPGTERELVAVISRGGNTYYADSVKGRFTISRDNAKNTVYLQMNSLKPEDTAVYDCAVYYPRGVSGGRFTRYDYWGQGTQVTVSS,high polyreactivity
20,QVQLVETGGGLVQAGGSLRLSCAASGRIFGSYAMGWYRQAPGKERELVASIRSGGRTKYADSVKGRFTISRDNAKNTVYFQMNSLKPEDTAVYYCAVPIEWDYGYWGQGTQVTVSS,low polyreactivity
21,QVQLEESGGGLDQAGGSLRLSCAASGNIFYGNAMGWYIQAAGKERALVARISGTGRTNYADSVKGRFTISRDNAKNTVYLQMNSLKPEDTAVYYCAKYGYRSRYGYDYWGQGTQVTVTS,high polyreactivity
